Consider one substance from paper PMC6422494.

The target in the assay is GST-stx-1A (syntaxin-1A, GST fusion, immobilised on glutathione-sepharose beads) (UniProt P32851). As to the kind of experiment: pull-down; GST-stx-1A immobilised on glutathione-sepharose beads; one prey protein (5 µM), 20 hr, 4°C; 100 mM NaCl, 20 mM Tris, 1 mM DTT, 1 mM EDTA, 0.5% Triton X-100, pH 7.4; four washes; SDS-PAGE, Coomassie, molar retention ratio by densitometry.
UniProt P32851, sequence (P32851 1-262): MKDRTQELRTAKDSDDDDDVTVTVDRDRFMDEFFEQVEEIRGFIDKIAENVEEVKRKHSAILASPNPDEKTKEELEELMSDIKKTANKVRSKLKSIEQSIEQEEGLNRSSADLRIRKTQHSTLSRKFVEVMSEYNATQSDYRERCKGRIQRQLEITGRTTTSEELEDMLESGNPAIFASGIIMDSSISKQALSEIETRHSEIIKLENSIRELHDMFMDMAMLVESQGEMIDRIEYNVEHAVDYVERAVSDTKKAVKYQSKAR

As for “SN25 L^GGS (6xHis-tagged, recombinant; whole linker aa 83-141 substituted by a flexible G/S peptide) (from UniProt P60881-2 1-82; P60881-2 142-206) (natural protein)”, the molar ratio bound, percent lower than WT was determined as 50 % lower.
